# Results: paper PMC4505822
# Biological target: wild-type full-length recombinant human prion protein (human) (UniProt P04156)
# Assay: AFM height measurement with a calibration curve of marker proteins
substance,measurement,value
wild-type full-length recombinant human prion protein (from UniProt P04156 23-231) (natural protein),stoichiometry N,11 to 22 monomers
